B1: TBX6 (parent)
chain: AFLELPHGSGGSGYPAAPPAVPFA

Variants of: B1
Experiment: protein stability index of a GFP-peptide fusion (GPS, HEK-293T) (PSI 1-6); higher = more stable
Conditions: c terminus: a fixed tail appended
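Note: lentivirally expressed fusions sorted by FACS into six bins by GFP to DsRed ratio, PSI derived from sequencing read proportions per bin multiplied by bin number.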

Protein stability index: each site, then its substitutions
S9: V 2.17; W 2.31; Q 2.63; L 1.93; C 1.96; Y 2.21; K 1.94; D 2.6; N 2.61; P 2.61; I 2.12; R 2.68; G 2.41; M 1.9; A 3.21; E 2.58; F 1.45; T 2.1; H 2.02
L3: W 3.01; Y 2.08
P6: R 1.53; C 1.34; T 2.21; Q 2; H 1.95; D 2.31; A 1.64; G 1.62; N 2.14; M 2.29; E 2.62; I 2.85; K 2.37; W 2.9; Y 2.36; L 2.4; S 2.47; F 2.09
G8: E 3.31; P 2.21; T 2.27; L 1.96; I 1.88; Q 2.02; H 2.27; D 2.75; S 2.71; F 1.71; A 2.86; N 2.53; W 1.93; V 1.68; R 2.1; K 2.42; Y 1.97; M 2.57; C 2.19
G10: R 2.07; H 2.34; S 2.7; I 2.55; V 2.2; Q 2.08; K 2.01; F 2.36; D 2.67; N 2.42; W 1.25; P 2.44; E 2.96; C 2.55; M 2.3; Y 1.9; L 2.22; T 2.1; A 2.24
S12: G 2.31; L 2.18; E 2.74; D 3; A 2.33; N 2.62; I 2.28; H 2.22; C 2.12; K 2.17; Q 2.29; P 2.08; M 2; R 2.27; F 1.91
E4: D 2.42; Y 2.2; K 1.68; Q 1.93; L 2.21; P 3.3; V 1.9; S 2.19; N 2.09; H 2.12; R 1.76; M 1.56; C 2.17; I 3.55; A 2.24; F 1.4; T 2.03; G 2.13
L5: W 2.32; I 2.43; S 2.8; E 2.83; M 2.69; G 3.25; Y 2.39; P 3.17; V 2.59; H 2.9; T 2.61; Q 2.83; C 2.51; A 2.79; F 2.29; D 2.81; R 2.71; N 2.74; K 2.59
H7: Y 2.34; N 2.2; A 2.29; V 2.45; L 1.97; E 2.83; I 2.39; Q 2.4; P 2.78; T 2.41; K 2.69; S 2.4; G 2.74; R 2.67; C 2.12; D 2.9; F 1.85; M 2.1; W 1.56
G11: Q 2.2; E 2.77; Y 1.95; A 2.5; F 2.19; P 2.28; V 2.12; H 2.15; L 1.93; M 2.01; S 2.7; W 2.32; N 2.07; K 2.07; T 2.11; R 2.3; C 1.9; D 2.89; I 2.23

From the supplement of paper PMC10567573
